# Tests used:
# p53 (Santa Cruz sc-4246) [1] = molecular target: p53 (Santa Cruz sc-4246) (UniProt P04637); assay: LSPR fiber tip probe, second of three devices, Langmuir fit
# p53 (Santa Cruz sc-4246) [2] = molecular target: p53 (Santa Cruz sc-4246) (UniProt P04637); assay: UV-Visible spectroscopy of antibody-coated gold nanorods in solution, resonance shift vs. concentration, Langmuir fit
# p53 (Santa Cruz sc-4246) [3] = molecular target: p53 (Santa Cruz sc-4246) (UniProt P04637); assay: LSPR fiber tip probe, antibody on gold nanorod, 1 nM p53 in PBS
# p53 (Santa Cruz sc-4246) [4] = molecular target: p53 (Santa Cruz sc-4246) (UniProt P04637); assay: LSPR fiber tip probe, first of three devices, Langmuir fit
# p53 (Santa Cruz sc-4246) [5] = molecular target: p53 (Santa Cruz sc-4246) (UniProt P04637); assay: LSPR fiber tip probe, shift vs. concentration, Langmuir fit
# p53 (Santa Cruz sc-4246) [6] = molecular target: p53 (Santa Cruz sc-4246) (UniProt P04637); assay: LSPR fiber tip probe, antibody on gold nanorod, 18.92 nM p53 in PBS
# p53 (Santa Cruz sc-4246) [7] = molecular target: p53 (Santa Cruz sc-4246) (UniProt P04637); assay: LSPR fiber tip probe, shift vs. concentration, Langmuir fit (FIG. 3B)
# p53 (Santa Cruz sc-4246) [8] = molecular target: p53 (Santa Cruz sc-4246) (UniProt P04637); assay: LSPR fiber tip probe, third of three devices, Langmuir fit
# Sequence of UniProt P04637 (P04637 whole entry): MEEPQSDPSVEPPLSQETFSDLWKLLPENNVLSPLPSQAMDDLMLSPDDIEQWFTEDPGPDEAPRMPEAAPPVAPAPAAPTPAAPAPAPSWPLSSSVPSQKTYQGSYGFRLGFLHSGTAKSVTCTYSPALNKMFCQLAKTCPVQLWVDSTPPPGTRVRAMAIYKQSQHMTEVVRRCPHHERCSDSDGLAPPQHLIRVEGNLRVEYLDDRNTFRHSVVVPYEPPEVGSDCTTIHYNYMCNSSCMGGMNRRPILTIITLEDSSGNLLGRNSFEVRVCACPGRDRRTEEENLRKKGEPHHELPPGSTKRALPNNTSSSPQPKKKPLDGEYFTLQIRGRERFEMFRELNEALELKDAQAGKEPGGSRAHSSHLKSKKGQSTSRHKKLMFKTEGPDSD
substance,measurement,setting,value
p53 antibody (Santa Cruz sc-126),Kd,p53 (Santa Cruz sc-4246) [1],4.2 nM
same,Kd,p53 (Santa Cruz sc-4246) [2],4.3 nM
same,LSPR shift,p53 (Santa Cruz sc-4246) [3],0.55 nm
same,Kd,p53 (Santa Cruz sc-4246) [4],5.5 nM
same,Kd,p53 (Santa Cruz sc-4246) [5],5.5 nM
same,LSPR shift,p53 (Santa Cruz sc-4246) [6],5.13 nm
same,Kd,p53 (Santa Cruz sc-4246) [7],5.4 nM
same,Kd,p53 (Santa Cruz sc-4246) [8],7.1 nM
